Substrate in the series: CC(=O)C=O
As to the kind of experiment: purified protein.

B1: (Homo sapiens) (protein)
chain: MASKRALVILAKGAEEMETVIPVDVMRRAGIKVTVAGLAGKDPVQCSRDVVICPDASLEDAKKEGPYDVVVLPGGNLGAQNLSESAAVKEILKEQENRKGLIAAICAGPTALLAHEIGFGSKVTTHPLAKDKMMNGGHYTYSENRVEKDGLILTSRGPGTSFEFALAIVEALNGKEVAAQVKAPLVLKD
As to B1, the Km stood at 340 ± 40 µM and the kcat came out at 0.126 ± 0.004 s⁻¹.

Broadly, the Km is the substrate concentration at which the rate is half of its maximum. A word on the kcat: it is the maximal rate divided by the concentration of active sites.

The record behind these values is paper PMC9426524.
